In one assay the target is eukaryotic microtubules. Nature of the assay: cell-based or functional assay.
The target in assay [1] is HtubA/B dimer (hybrid bacterial-bovine tubulin heterodimer) (Prosthecobacter dejongeii). The assay is described as follows: cell-based or functional assay.

For one substance, rate of ATP binding (MANT-ATP, stopped-flow) results are on record in patent publication US20120045785A1.

HtubA/B dimer (hybrid bacterial-bovine tubulin heterodimer) (Prosthecobacter dejongeii), sequence (chain, as listed by the source, chain 1 of 2): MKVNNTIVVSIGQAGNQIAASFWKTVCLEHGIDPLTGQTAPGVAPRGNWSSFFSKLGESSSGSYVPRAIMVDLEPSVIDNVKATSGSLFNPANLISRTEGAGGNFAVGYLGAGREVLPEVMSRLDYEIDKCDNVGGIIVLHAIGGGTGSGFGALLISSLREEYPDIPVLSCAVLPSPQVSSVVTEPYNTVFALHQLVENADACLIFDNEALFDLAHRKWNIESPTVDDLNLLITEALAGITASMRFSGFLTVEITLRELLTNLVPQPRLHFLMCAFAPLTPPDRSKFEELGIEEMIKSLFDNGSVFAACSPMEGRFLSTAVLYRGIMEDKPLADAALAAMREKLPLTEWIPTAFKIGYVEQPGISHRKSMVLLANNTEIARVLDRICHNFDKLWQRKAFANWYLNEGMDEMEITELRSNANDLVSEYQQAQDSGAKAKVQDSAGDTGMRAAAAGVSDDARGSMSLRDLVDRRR
HtubA/B dimer (hybrid bacterial-bovine tubulin heterodimer) (Prosthecobacter dejongeii), sequence (chain, as listed by the source, chain 2 of 2): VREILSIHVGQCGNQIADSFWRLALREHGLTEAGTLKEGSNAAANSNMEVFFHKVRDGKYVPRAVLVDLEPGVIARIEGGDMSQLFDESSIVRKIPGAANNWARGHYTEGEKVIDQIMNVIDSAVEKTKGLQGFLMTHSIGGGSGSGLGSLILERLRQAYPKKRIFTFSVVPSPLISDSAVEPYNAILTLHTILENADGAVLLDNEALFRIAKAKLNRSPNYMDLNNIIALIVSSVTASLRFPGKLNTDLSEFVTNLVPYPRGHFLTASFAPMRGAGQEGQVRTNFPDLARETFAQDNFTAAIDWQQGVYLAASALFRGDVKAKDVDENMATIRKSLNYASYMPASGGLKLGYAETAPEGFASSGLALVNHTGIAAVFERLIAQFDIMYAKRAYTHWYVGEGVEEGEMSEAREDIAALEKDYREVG

Consider Eg5 (a kinesin-5) motor domain (enzyme), for which the values for the rate of ATP binding (MANT-ATP, stopped-flow) (with eukaryotic microtubules; in assay [1]) were 25 to 30 s⁻¹ and 265 s⁻¹, respectively.
